Measured values as given in patent publication US20150023943, “REF Nuclease for Site-Specific REF-Mediated DNA Cleavage” (Wisconsin Alumni Research Foundation, published 2015).

Tests used:
φW39 ΔN21 Ref [1] = biological target: T1, φW39 ΔN21 Ref (Bacteriophage phi W39); assay: FP; apparent Kd; 119±9; 15 mM Mg acetate, pH 8.5, 25 C; settings: tags: expressed from pET21A with NdeI start Met; label: 5'-6FAM
T1 chain: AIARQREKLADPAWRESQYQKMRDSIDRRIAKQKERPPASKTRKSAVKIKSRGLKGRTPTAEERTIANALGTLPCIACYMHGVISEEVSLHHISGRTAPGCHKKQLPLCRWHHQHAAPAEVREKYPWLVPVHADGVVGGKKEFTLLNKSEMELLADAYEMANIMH
Method: (§1) Fluorescence polarization DNA binding assay—Ref (or a variant) at 0.5-10,000 nM was incubated with 2 nM AJM25 71mer ssDNA or AJM25 annealed with AJG52 71mer to make dsDNA substrate in 25 mM Tris-acetate (pH 8.5), 3 mM potassium glutamate, 15 mM magnesium acetate, and 5% w/v glycerol at room temperature for 15 minutes. Fluorescence anisotropy (FA) was measured at 25° C., using a Tecan Infinite M1000 instrument with 470-nm excitation and 535-nm emission wavelengths for at least three replicates; the average FA values were plotted with one standard deviation of the mean shown as error. Prism software was used to convert FA values to the fraction of DNA bound and apparent dissociation constants were the Ref concentration (or variant) needed for 50% binding saturation.
(§2) Fluorescence polarization assays with labeled DNA substrates (ssDNA and dsDNA) were carried out to determine dissociation constants of each of the N-terminal domain truncations. […] For the P1 ΔN76 Ref protein, this is consistent with EMSA data from the earlier study (Gruenig et al 2011, supra). […] This indicates the presence of a critical sequence domain between residues 47-74.

P1 Ref (wild type) [2] = biological target: T2, P1 Ref (wild type) (Bacteriophage P1, UniProt P35926 SEQ:1-186); assay: FP; apparent Kd; 14±1; 25 mM Tris-acetate pH 8.5, 15 mM Mg acetate, 3 mM K glutamate, 25 C; settings: label: 5'-6FAM
T2 sequence: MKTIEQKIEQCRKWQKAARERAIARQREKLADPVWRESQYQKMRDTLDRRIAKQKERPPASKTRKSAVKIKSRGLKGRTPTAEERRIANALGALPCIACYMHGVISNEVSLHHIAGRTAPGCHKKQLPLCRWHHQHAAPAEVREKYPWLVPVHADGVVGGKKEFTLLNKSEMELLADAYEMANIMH
Method: as §1, §2

φW39 ΔN74 Ref [3] = biological target: T3, φW39 ΔN74 Ref (Bacteriophage phi W39); assay: FP; no binding detected up to 10,000 nM; settings: tags: expressed from pET21A with NdeI start Met; label: 5'-6FAM
T3 chain: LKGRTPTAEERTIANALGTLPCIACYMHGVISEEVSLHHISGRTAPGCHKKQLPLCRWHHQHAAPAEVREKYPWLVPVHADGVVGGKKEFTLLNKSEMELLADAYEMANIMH
Method: as §1, §2

φW39 ΔN47 Ref [4] = biological target: T4, φW39 ΔN47 Ref (Bacteriophage phi W39); assay: FP; apparent Kd; 113±7; 15 mM Mg acetate, pH 8.5, 25 C; settings: tags: expressed from pET21A with NdeI start Met; label: 5'-6FAM
T4 chain: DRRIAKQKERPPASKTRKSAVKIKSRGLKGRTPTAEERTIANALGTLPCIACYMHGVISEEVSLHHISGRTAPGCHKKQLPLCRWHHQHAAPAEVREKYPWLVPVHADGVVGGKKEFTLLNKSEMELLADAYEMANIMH
Method: as §1, §2

P1 ΔN76 Ref [5] = biological target: T5, P1 ΔN76 Ref (Bacteriophage P1, UniProt P35926 SEQ:77-186); assay: FP; no binding detected up to 10,000 nM; consistent with earlier EMSA; settings: label: 5'-6FAM
T5 chain: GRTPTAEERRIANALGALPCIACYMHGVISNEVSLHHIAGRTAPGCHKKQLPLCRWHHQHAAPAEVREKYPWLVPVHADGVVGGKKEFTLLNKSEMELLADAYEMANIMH
Method: as §1, §2

φW39 ΔN47 Ref [6] = biological target: T4, φW39 ΔN47 Ref; assay: FP; apparent Kd; 143±12; 15 mM Mg acetate, pH 8.5, 25 C; settings: tags: expressed from pET21A with NdeI start Met; label: 5'-6FAM on AJM25
Method: as §1
(§3) The truncations were also assayed with 71mer dsDNA substrate. The dsDNA substrate was made by annealing the labeled 71mer oligonucleotide (AJM25) with the complementary 71mer oligonucleotide (AJG52). […] Instead, an increase in KD is seen as more of the N-terminus is truncated (FIG. 2B, 2C). Also, there is an apparent cooperativity when binding to dsDNA, and this cooperativity decreases as the N-terminus is truncated (FIG. 2C). This provides evidence that the N-terminal region of Ref is necessary for DNA binding. Specifically, the amino acids between position 47 and 74 are particularly important.

φW39 ΔN21 Ref [7] = biological target: T1, φW39 ΔN21 Ref; assay: FP; apparent Kd; 56±3; 15 mM Mg acetate, pH 8.5, 25 C; settings: tags: expressed from pET21A with NdeI start Met; label: 5'-6FAM on AJM25
Method: as §1, §3

P1 ΔN76 Ref [8] = biological target: T5, P1 ΔN76 Ref; assay: FP; no observable binding; settings: label: 5'-6FAM on AJM25
Method: (§4) The truncations were also assayed with a 71mer dsDNA substrate made by annealing the labeled 71mer oligonucleotide (AJM25) with the complementary 71mer oligonucleotide (AJG52). […] As the second motif and part of the third motif were removed in the φW39 ΔN59 and φW39 ΔN66, dsDNA binding was further reduced. As with the ssDNA, φW39 ΔN74 and P1 ΔN76 Ref had no observable dsDNA binding. Overall we provide evidence that the N-terminal region of Ref is necessary for DNA binding, and the putative charge motifs may contribute collectively to that function.
(§5) Ref proteins at 0.5-10,000 nM were incubated with 2 nM AJM25 71mer ssDNA or AJM25 annealed with AJG52 71mer to make a linear 71 bp dsDNA substrate in 25 mM Tris-acetate (pH 8.5), 3 mM potassium glutamate, 15 mM magnesium acetate, and 5% w/v glycerol at room temperature for 15 minutes. Fluorescence anisotropy (FA) was measured at 25° C., using a Tecan Infinite M1000 instrument with 470-nm excitation and 535-nm emission wavelengths for at least three replicates. The average FA values were plotted with one standard deviation of the mean shown as error. Prism software was used to convert FA values to the percent of DNA bound and apparent dissociation constants were determined using one-site, specific binding with Hill coefficient.

φW39 ΔN74 Ref [9] = biological target: T3, φW39 ΔN74 Ref; assay: FP; no observable binding; settings: tags: expressed from pET21A with NdeI start Met; label: 5'-6FAM on AJM25
Method: as §4, §5

P1 Ref (wild type) [10] = biological target: T2, P1 Ref (wild type); assay: FP; apparent Kd; 14±1; cooperative; 15 mM Mg acetate, pH 8.5, 25 C; settings: label: 5'-6FAM on AJM25
Method: as §1, §3

B1: AJM25 71mer ssDNA (ssDNA)
DNA: CAGAAGTAAGTTGGCCGCAGTGTTATCACTCATGGTTATGGCAGCACTGCATAATTCTCTTACTGTCATGC
Kd (φW39 ΔN21 Ref [1]): 119 nM
Kd (P1 Ref (wild type) [2]): 14.4 nM
binding result (φW39 ΔN74 Ref [3]): no binding
Kd (φW39 ΔN47 Ref [4]): 113 nM
binding result (P1 ΔN76 Ref [5]): no binding

B2: AJM25/AJG52 71 bp dsDNA (dsDNA)
DNA 1: CAGAAGTAAGTTGGCCGCAGTGTTATCACTCATGGTTATGGCAGCACTGCATAATTCTCTTACTGTCATGC
DNA 2: GCATGACAGTAAGAGAATTATGCAGTGCTGCCATAACCATGAGTGATAACACTGCGGCCAACTTACTTCTG
Kd (φW39 ΔN47 Ref [6]): 142 nM
Kd (φW39 ΔN21 Ref [7]): 56.1 nM
binding result (P1 ΔN76 Ref [8]): no binding
binding result (φW39 ΔN74 Ref [9]): no binding
Kd (P1 Ref (wild type) [10]): 13.5 nM
